# Measurements published in IntAct's records for PubMed 25502805.
# B1: Kelch-like protein 3 (Homo sapiens), Q9UH77 (parent)
# chain: MEGESVKLSSQTLIQAGDDEKNQRTITVNPAHMGKAFKVMNELRSKQLLCDVMIVAEDVEIEAHRVVLAACSPYFCAMFTGDMSESKAKKIEIKDVDGQTLSKLIDYIYTAEIEVTEENVQVLLPAASLLQLMDVRQNCCDFLQSQLHPTNCLGIRAFADVHTCTDLLQQANAYAEQHFPEVMLGEEFLSLSLDQVCSLISSDKLTVSSEEKVFEAVISWINYEKETRLEHMAKLMEHVRLPLLPRDYLVQTVEEEALIKNNNTCKDFLIEAMKYHLLPLDQRLLIKNPRTKPRTPVSLPKVMIVVGGQAPKAIRSVECYDFEEDRWDQIAELPSRRCRAGVVFMAGHVYAVGGFNGSLRVRTVDVYDGVKDQWTSIASMQERRSTLGAAVLNDLLYAVGGFDGSTGLASVEAYSYKTNEWFFVAPMNTRRSSVGVGVVEGKLYAVGGYDGASRQCLSTVEQYNPATNEWIYVADMSTRRSGAGVGVLSGQLYATGGHDGPLVRKSVEVYDPGTNTWKQVADMNMCRRNAGVCAVNGLLYVVGGDDGSCNLASVEYYNPVTDKWTLLPTNMSTGRSYAGVAVIHKSL
# B2: Peroxisomal biogenesis factor 3 (Homo sapiens), P56589 (parent)
# chain: MLRSVWNFLKRHKKKCIFLGTVLGGVYILGKYGQKKIREIQEREAAEYIAQARRQYHFESNQRTCNMTVLSMLPTLREALMQQLNSESLTALLKNRPSNKLEIWEDLKIISFTRSTVAVYSTCMLVVLLRVQLNIIGGYIYLDNAAVGKNGTTILAPPDVQQQYLSSIQHLLGDGLTELITVIKQAVQKVLGSVSLKHSLSLLDLEQKLKEIRNLVEQHKSSSWINKDGSKPLLCHYMMPDEETPLAVQACGLSPRDITTIKLLNETRDMLESPDFSTVLNTCLNRGFSRLLDNMAEFFRPTEQDLQHGNSMNSLSSVSLPLAKIIPIVNGQIHSVCSETPSHFVQDLLTMEQVKDFAANVYEAFSTPQQLEK
# partner: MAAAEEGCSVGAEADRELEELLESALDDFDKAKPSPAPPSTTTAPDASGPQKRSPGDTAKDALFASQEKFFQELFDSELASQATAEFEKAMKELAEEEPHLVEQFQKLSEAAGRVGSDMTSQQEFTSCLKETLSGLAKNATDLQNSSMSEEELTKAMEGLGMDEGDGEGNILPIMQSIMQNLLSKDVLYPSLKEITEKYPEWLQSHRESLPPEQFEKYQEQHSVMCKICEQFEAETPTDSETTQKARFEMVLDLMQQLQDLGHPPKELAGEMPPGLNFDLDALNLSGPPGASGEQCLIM
# B3: pre-mRNA splicing regulator USH1G (Homo sapiens), Q495M9 (parent)
# chain: MNDQYHRAARDGYLELLKEATRKELNAPDEDGMTPTLWAAYHGNLESLRLIVSRGGDPDKCDIWGNTPLHLAASNGHLHCLSFLVSFGANIWCLDNDYHTPLDMAAMKGHMECVRYLDSIAAKQSSLNPKLVGKLKDKAFREAERRIRECAKLQRRHHERMERRYRRELAERSDTLSFSSLTSSTLSRRLQHLALGSHLPYSQATLHGTARGKTKMQKKLERRKQGGEGTFKVSEDGRKSARSLSGLQLGSDVMFVRQGTYANPKEWGRAPLRDMFLSDEDSVSRATLAAEPAHSEVSTDSGHDSLFTRPGLGTMVFRRNYLSSGLHGLGREDGGLDGVGAPRGRLQSSPSLDDDSLGSANSLQDRSCGEELPWDELDLGLDEDLEPETSPLETFLASLHMEDFAALLRQEKIDLEALMLCSDLDLRSISVPLGPRKKILGAVRRRRQAMERPPALEDTEL
# partner: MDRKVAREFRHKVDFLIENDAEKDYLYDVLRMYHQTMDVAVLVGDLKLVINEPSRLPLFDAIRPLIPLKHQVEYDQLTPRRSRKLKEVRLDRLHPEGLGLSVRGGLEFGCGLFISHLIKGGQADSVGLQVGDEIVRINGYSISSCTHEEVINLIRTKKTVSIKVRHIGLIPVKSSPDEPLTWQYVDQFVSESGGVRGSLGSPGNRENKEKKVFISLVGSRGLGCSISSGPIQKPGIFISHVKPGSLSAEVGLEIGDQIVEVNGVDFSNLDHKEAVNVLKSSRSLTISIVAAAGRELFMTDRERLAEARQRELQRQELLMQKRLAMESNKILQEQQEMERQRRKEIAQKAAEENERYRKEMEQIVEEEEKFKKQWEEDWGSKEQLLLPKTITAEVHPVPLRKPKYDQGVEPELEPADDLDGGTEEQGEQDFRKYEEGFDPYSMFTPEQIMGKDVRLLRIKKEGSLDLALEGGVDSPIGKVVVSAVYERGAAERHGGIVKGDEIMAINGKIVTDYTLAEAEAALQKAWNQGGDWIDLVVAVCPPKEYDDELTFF
# Variants of: B1
# Settings: with cul3_human CUL3, Q13618
row,Variant,effect of a mutation on the interaction
1,R228G,disrupting interaction strength
2,C164F,disrupting interaction strength

# Variants of: B2
# Settings: with pex19_human PEX19, P40855
row,Variant,effect of a mutation on the interaction
1,D347Y,with no effect

# Variants of: B3
# Settings: with ush1c_human USH1C
row,Variant,effect of a mutation on the interaction
1,L48P,with no effect
2,L16V,with no effect
